{"source": "paper doi:10.1101/2024.07.16.603698", "about": "(bioRxiv, 2024)", "binders": {"B1": {"name": "human UPF2 truncated construct lacking 120 and 45 residues at the N- and C-termini (domain or fragment)", "chain": "MKEKEESIQLHQEAWERHHLRKELRSKNQNAPDSRPEENFFSRLDSSLKKNTAFVKKLKTITEQQRDSLSHDFNGLNLSKYIAEAVASIVEAKLKISDVNCAVHLCSLFHQRYADFAPSLLQVWKKHFEARKEEKTPNITKLRTDLRFIAELTIVGIFTDKEGLSLIYEQLKNIINADRESHTHVSVVISFCRHCGDDIAGLVPRKVKSAAEKFNLSFPPSEIISPEKQQPFQNLLKEYFTSLTKHLKRDHRELQNTERQNRRILHSKGELSEDRHKQYEEFAMSYQKLLANSQSLADLLDENMPDLPQDKPTPEEHGPGIDIFTPGKPGEYDLEGGIWEDEDARNFYENLIDLKAFVPAILFKDNEKSCQNKESNKDDTKEAKESKENKEVSSPDDLELELENLEINDDTLELEGGDEAEDLTKKLLDEQEQEDEEASTGSHLKLIVDAFLQQLPNCVNRDLIDKAAMDFCMNMNTKANRKKLVRALFIVPRQRLDLLPFYARLVATLHPCMSDVAEDLCSMLRGDFRFHVRKKDQINIETKNKTVRFIGELTKFKMFTKNDTLHCLKMLLSDFSHHHIEMACTLLETCGRFLFRSPESHLRTSVLLEQMMRKKQAMHLDARYVTMVENAYYYCNPPPAEKTVKKKRPPLQEYVRKLLYKDLSKVTTEKVLRQMRKLPWQDQEVKDYVICCMINIWNVKYNSIHCVANLLAGLVLYQEDVGIHVVDGVLEDIRLGMEVNQPKFNQRRISSAKFLGELYNYRMVESAVIFRTLYSFTSFGVNPDGSPSSLDPPEHLFRIRLVCTILDTCGQYFDRGSSKRKLDCFLVYFQRYVWWKKSLEVWTKDHPFPIDIDYMISDTLELLRPKIKLCNSLEESIRQVQDLEREFLIKLGLVNDKDSKDSMTEGENLEEDEEEEEGGAETEEQSGNESEVNEPEEEEGSDNDDDEGEEEEEENTDYLTDSNKENETDEENTEVMIKGGGLKHVPCVEDEDFIQALDKMMLENLQQRSGESVKVHQLDVAIPLHLKSQLRKGPPLGGGEGEAESADTMPFVMLTRKGNKQQFKILNVPMSSQLAANHWNQQQAEQEERMRMKKLTLDINERQEQED"}}, "molecular_target": "full-length GST-tagged SARS-CoV-2 Nucleocapsid (N) protein (SARS-CoV-2, UniProt P0DTC9 1-419)", "test": "pull-down"}
{"binder": "B1", "values": [{"measurement": "binding result", "value": "binds"}]}
